Experimental data published in article PMC3589492, “Intersubunit Ionic Interactions Stabilize the Nucleoside Diphosphate Kinase of Mycobacterium tuberculosis” (PLoS ONE, 2013).

Experiments:
[1] = biological target: the molecule itself; assay: SEC; Superose 12 column, 50 mM Hepes pH 7.4, 150 mM sodium chloride, 0.4 mL/min, calibrated with molecular weight markers
[2] = biological target: the molecule itself; assay: cell-based or functional assay

B1: Nucleoside diphosphate kinase of Mycobacterium tuberculosis, wild type (enzyme)
chain: MTERTLVLIKPDGIERQLIGEIISRIERKGLTIAALQLRTVSAELASQHYAEHEGKPFFGSLLEFITSGPVVAAIVEGTRAIAAVRQLAGGTDPVQAAAPGTIRGDFALETQFNLVHGSDSAESAQREIALWFPGA
notes: Nucleoside diphosphate kinase, Mycobacterium tuberculosis; No tag is mentioned; also called Mt-NDPK; wt Mt-NDPK
- stoichiometry N [1]: 6
- c1/2 of inactivation/unfolding in urea (10 µg/mL, 16 h) [2]: ~5.2 M
